“And” between values parts separate entries of the source, which are not always exact repeats. Identical values can stand only once.
biological target: T1, recombinant human LAG3 (Sino Biological Inc.) (human, UniProt P18627 23-450); experiment: ELISA, recombinant human LAG3 coated, Fab detected by anti-FLAG-HRP
T1 construct: Bought recombinant protein; also called CD223; biotinylated recombinant human LAG3
T1 sequence (looked up): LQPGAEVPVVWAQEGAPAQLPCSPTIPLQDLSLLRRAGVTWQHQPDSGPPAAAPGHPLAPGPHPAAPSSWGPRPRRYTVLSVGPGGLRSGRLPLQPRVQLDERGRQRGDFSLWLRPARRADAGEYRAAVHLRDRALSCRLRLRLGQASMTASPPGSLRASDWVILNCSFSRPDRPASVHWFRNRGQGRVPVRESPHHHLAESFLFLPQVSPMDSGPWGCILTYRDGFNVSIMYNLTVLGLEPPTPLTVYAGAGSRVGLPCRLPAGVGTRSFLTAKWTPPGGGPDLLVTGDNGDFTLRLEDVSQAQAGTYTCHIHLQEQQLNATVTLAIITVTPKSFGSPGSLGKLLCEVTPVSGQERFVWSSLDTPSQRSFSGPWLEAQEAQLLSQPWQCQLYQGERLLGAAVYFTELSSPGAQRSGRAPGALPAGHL
Protocol: The hexahistidine-tagged antibodies were expressed in E. coli strain HB2151 and purified from the soluble fraction of periplasm by using the Ni-NTA resin. 7 monoclonal antibodies against human LAG3 were selected by panning a large phage-display library of naïve human antibodies in the format of antigen-binding fragment (Fab). Then ELISA was performed according to standard protocols. Briefly, recombinant human LAG3 (Sino Biological Inc.) was coated on Corning EIA/RIA high-binding 96-well plates (Corning Inc.) at 50 ng per well overnight at 4° C. and blocked with 3% nonfat milk in PBS (pH7.4). Fivefold serially diluted antibodies were added and incubated at room temperature for 2 h. The plates were washed with PBS containing 0.05% Tween 20. Bound antibodies were detected by HRP-conjugated anti-FLAG tag antibody (Sigma-Aldrich). The assay was developed at room temperature with TMB substrate (Sigma-Aldrich) and monitored at 450 nm with a microplate reader.

Row | Binder | EC50 | binding result
1 | DNV1 Fab (Fab, V domains shown, Human Fab from a phage library, hexahistidine-tagged, detected through a FLAG tag, made in E. coli HB2151) VH: QVQLQQWGAGLLKPSETLSLTCAVYGGSFSGYYWSWIRQPPGKGLEWIGEINHSGSTNYNPSLKSRVTISVDTSKNQFSLKLSSVTAADTAVYYCARITPRFDAFDIWGQGTMVTVSS VL: QSVLTQPPSVSAAPGRKVTISCSGSSSNIGTNSVSWYQQFPGTAPKLLIYDNNKRLSRIPDRFSGSKSGTSASLAISGLQSEDEADYYCAAWDDSLTGYVFGTGTKVTVL | ≤ 10 nM | 
2 | DNV3 Fab (Fab, V domains shown, Human Fab from a phage library, hexahistidine-tagged, detected through a FLAG tag, made in E. coli HB2151) VH: EVQLVQSGAEVKKPGASVKVSCKASGYTFTSYGISWVRQAPGQGLEWMGWISAYNGNTNYAQKLQGRVTMTTDTSTSTAYMELRSLRSDDTAVYYCARDSSSWWVDAFDIWGQGTMVTVSS VL: QSVLTQPPSVSAAPGQKVTISCSGSTSNIAINYVSWYQQVPGTVPKLLIYDDDKRPSGIPDRFSGSKSGTSATLDISGLQTGDEAHYYCGVWDNSLLAVLFGGGTSLTVL | 6 nM and ≤ 10 nM | 
3 | DNV3.1 Fab (Fab, V domains shown) VH: EVQLVQSGAEVKKPGASVKVSCKASGYTFTSYGISWVRQAPGQGLEWMGWISAYNGNTNYAQKLQGRVTMTTDTSTSTAYMELRSLRSDDTAVYYCARDSSSWWVDAFDIWGQGTMVTVSS VL: LPVLTQPPSASGTPGQRVTISCSGSSSNIGGNSVNWYQQLPGTAPKLLIYSDNQRPSGVPDRFSGSKSGTSASLAISGLQSEEEADYYCAAWDDSLNAYVFGPGTKVTVL |  | binds
4 | DNV3.5 Fab (Fab, V domains shown, Light-chain-shuffled Fab variant of DNV3) VH: EVQLVQSGAEVKKPGASVKVSCKASGYTFTSYGISWVRQAPGQGLEWMGWISAYNGNTNYAQKLQGRVTMTTDTSTSTAYMELRSLRSDDTAVYYCARDSSSWWVDAFDIWGQGTMVTVSS VL: QSVLTQPPSASGTPGQRVTISCSGSTSNIGGNTVNWYQQLPGTAPKLLIYSSNRRPSGVPDRFSGSTSGTSASLAISGLQSEDEADYYCAAWDDSLIAYVFGTGTKVTVL |  | binds
5 | DNV3.2 Fab (Fab, V domains shown, Light-chain-shuffled Fab variant of DNV3) VH: EVQLVQSGAEVKKPGASVKVSCKASGYTFTSYGISWVRQAPGQGLEWMGWISAYNGNTNYAQKLQGRVTMTTDTSTSTAYMELRSLRSDDTAVYYCARDSSSWWVDAFDIWGQGTMVTVSS VL: not shown |  | binds
6 | DNV3.12 Fab (Fab, V domains shown, Light-chain-shuffled Fab variant of DNV3) VH: EVQLVQSGAEVKKPGASVKVSCKASGYTFTSYGISWVRQAPGQGLEWMGWISAYNGNTNYAQKLQGRVTMTTDTSTSTAYMELRSLRSDDTAVYYCARDSSSWWVDAFDIWGQGTMVTVSS VL: SYVLTQPPSASGTPGQRVTISCSGSSSNIGSNIVNWYQHLPGTAPKLLIYGNSQRPSGVSDRFSGSKSGTSASLAISGLQSEDEANYYCAVWDDSLDGHLLFGGGTKLTVL |  | binds
7 | DNV3.3 Fab (Fab, V domains shown, Light-chain-shuffled Fab variant of DNV3) VH: EVQLVQSGAEVKKPGASVKVSCKASGYTFTSYGISWVRQAPGQGLEWMGWISAYNGNTNYAQKLQGRVTMTTDTSTSTAYMELRSLRSDDTAVYYCARDSSSWWVDAFDIWGQGTMVTVSS VL: QSVLTQPPSASGTPGQRVTISCSGSSSNIGNNAVNWYQQLPGKAPKLLIYYDDLLPSGVSDRFSGSKSGTSASLAISGLRSEDEGDYFCAAWDDSLSGQVLFGGGTKLTVL |  | binds
8 | DNV3.4 Fab (Fab, V domains shown, Light-chain-shuffled Fab variant of DNV3) VH: EVQLVQSGAEVKKPGASVKVSCKASGYTFTSYGISWVRQAPGQGLEWMGWISAYNGNTNYAQKLQGRVTMTTDTSTSTAYMELRSLRSDDTAVYYCARDSSSWWVDAFDIWGQGTMVTVSS VL: SYVLTQPPSTSAAPGQTVTILCFGGGSNLQSNTVNWYRHVSGSAPKLLIHSDDERASGVSPRLSGSKSGGSASLILRGLQPEDEGDYYCAAWDDRLDAYVFGTGTKVTVL |  | binds
9 | DNV3.7 Fab (Fab, V domains shown, Light-chain-shuffled Fab variant of DNV3) VH: EVQLVQSGAEVKKPGASVKVSCKASGYTFTSYGISWVRQAPGQGLEWMGWISAYNGNTNYAQKLQGRVTMTTDTSTSTAYMELRSLRSDDTAVYYCARDSSSWWVDAFDIWGQGTMVTVSS VL: SYELTQPPSVSEAPRQRVTISCSGSSSNIGSNAVSWYQQVPRKAPKLLVYYDDLLPSGVSDRFSGSKSGTSASLAIRGLQSEDEADYYCAAWDDSLNAFVFGTGTKVTVL |  | binds
10 | DNV3.8 Fab (Fab, V domains shown, Light-chain-shuffled Fab variant of DNV3) VH: EVQLVQSGAEVKKPGASVKVSCKASGYTFTSYGISWVRQAPGQGLEWMGWISAYNGNTNYAQKLQGRVTMTTDTSTSTAYMELRSLRSDDTAVYYCARDSSSWWVDAFDIWGQGTMVTVSS VL: SYELTQPPSVSEAPRQRATISCSGSRSNIGNNAVSWYQRLPGQAPKLLIYYDTFLPSGVSDRFSGSKSGTSASLTISGLQSDDEADYYCAAWDDSLNGVLFGGGTKLTVQ |  | binds
11 | DNV3.14 Fab (Fab, V domains shown, Light-chain-shuffled Fab variant of DNV3) VH: EVQLVQSGAEVKKPGASVKVSCKASGYTFTSYGISWVRQAPGQGLEWMGWISAYNGNTNYAQKLQGRVTMTTDTSTSTAYMELRSLRSDDTAVYYCARDSSSWWVDAFDIWGQGTMVTVSS VL: PYVLTQPPSVSGAPRQRVTISCSGGSSNIASNAVNWYQQFPGKAPKLLVYYDDLLPSGVSDRFSGSKTGTSASLAISALQSEDEADYFCAAWDDSLNGVLFGGGTKLTVL |  | binds
12 | DNV3.9 Fab (Fab, V domains shown, Light-chain-shuffled Fab variant of DNV3) VH: EVQLVQSGAEVKKPGASVKVSCKASGYTFTSYGISWVRQAPGQGLEWMGWISAYNGNTNYAQKLQGRVTMTTDTSTSTAYMELRSLRSDDTAVYYCARDSSSWWVDAFDIWGQGTMVTVSS VL: LPVLTQPPSVSGAPRQRVTISCSGGSSNIASNAVNWYQQFPGKAPKLLVYYDDLLPSGVSDRFSGSKTGTSASLAISALQSEDEADYFCAAWDDSLNGVLFGGGTKLTVL |  | binds
13 | DNV3.16 Fab (Fab, V domains shown, Light-chain-shuffled Fab variant of DNV3) VH: EVQLVQSGAEVKKPGASVKVSCKASGYTFTSYGISWVRQAPGQGLEWMGWISAYNGNTNYAQKLQGRVTMTTDTSTSTAYMELRSLRSDDTAVYYCARDSSSWWVDAFDIWGQGTMVTVSS VL: SYVLTQPPSASGTPGQRVTISCSGGSSNIASNAVNWYQQFPGKAPKLLVYYDDLLPSGVSDRFSGSKTGTSASLAISALQSEDEADYFCAAWDDSLNGVLFGGGTKLTVL |  | binds
14 | DNV3.13 Fab (Fab, V domains shown, Light-chain-shuffled Fab variant of DNV3) VH: EVQLVQSGAEVKKPGASVKVSCKASGYTFTSYGISWVRQAPGQGLEWMGWISAYNGNTNYAQKLQGRVTMTTDTSTSTAYMELRSLRSDDTAVYYCARDSSSWWVDAFDIWGQGTMVTVSS VL: SYVLTQPPSASGTPGQRVTMSCSGRYSNIGGNTVNWYHHLPGTAPTLLIYSNDQRPSGVPDRFSGSKSGTSASLAISGVQSEDEADYYCAAWDDNLNGLVFGTGTKVTVL |  | binds
15 | DNV3.15 Fab (Fab, V domains shown, Light-chain-shuffled Fab variant of DNV3) VH: EVQLVQSGAEVKKPGASVKVSCKASGYTFTSYGISWVRQAPGQGLEWMGWISAYNGNTNYAQKLQGRVTMTTDTSTSTAYMELRSLRSDDTAVYYCARDSSSWWVDAFDIWGQGTMVTVSS VL: LPVLTQPPSASGTPGQRITISCSGSSSNIGSATVNWYQHLPGTAPKLLIYGDNQRPSGVADRFSGSKSGTSASLEIRGLQSEDEADYYCAAWDGSLDGVMFGGGTRVNVL |  | binds
16 | DNV3.18 Fab (Fab, V domains shown, Light-chain-shuffled Fab variant of DNV3) VH: EVQLVQSGAEVKKPGASVKVSCKASGYTFTSYGISWVRQAPGQGLEWMGWISAYNGNTNYAQKLQGRVTMTTDTSTSTAYMELRSLRSDDTAVYYCARDSSSWWVDAFDIWGQGTMVTVSS VL: SVVTQPPSVSEAPRQRVTISCSGSSSNIGNNAVNWYQQLPGKAPKLLIYYDDLLPSGVSDRFSGSKSGTSASLAISGLQSEDEADYYCAAWDDSLNAVVFGGGTKLTVL |  | binds

Reference: US20210115135A1 (ZHEJIANG SHIMAI PHARMACEUTICAL, published 2021)
